The subject of test [1] is peripheral blood mononuclear cells from a melanoma patient. In words: Patient PBMC stimulated in vitro with IFN-γ, apoptosis of CD8+ T cells. In kind it is cell-based, human. The note with it: different concentrations of IFN-γ; FIG. 5D. An excerpt:
It has been shown that T cell homeostasis can be achieved by down-modulation of antigen specific T cell receptor (TCR) signaling (A. M. Gallegos et al., Nature immunology 17, 379-386 (2016)). To investigate whether combination treatment eliminated different T cell clones depended on the strength of TCR binding to cognate cancer epitope, we gated on CD8 subsets and investigated Spas-1hi versus Spas-11o CD8+ T cell clones (FIG. 12C). […] Finally, peripheral blood mononuclear cells from a melanoma patient that received nivolumab immunotherapy were isolated and cultured in vitro with different concentrations of IFN-γ stimulation.
Splenocytes were harvested from TRAMP-C2 bearing C57BL/6j mice on day 50 and T cells were purified by magnetic beads according to the manufacturer's protocol (Miltenyi Biotec Cat 130-095-130). Cells were checked for over 90% purity. Purified T cells were suspend in DMEM (UCSF cell culture core) +10% fetal bovine serum (Lonza Cat 14-501F) +1% penicillin/streptomycin (UCSF cell culture core)+murine 20 IU IL-2 (Peprotech Cat 212-12), and seeded in 96 wells at 2×10^5 cells per well. Recombinant murine IFN-γ (Peprotech Cat 212-12) was added into the wells at indicated concentrations. Cells were cultured for 12-72 hours and analyzed by flow cytometry. […] Cells were harvested and analyzed by flow cytometry 72 hours after incubation.

Test [2] has as its system T cells purified from TRAMP-C2 tumor bearing mice. In words: In vitro T cell cultures stimulated with recombinant IFN-γ, active Caspase-3. In kind it is cell-based. The note with it: 72 hours after IFN-γ stimulation; FIG. 5B. On the procedure: We hypothesized that the loss of Spas-1 specific CD8+ T cells may be related to increased IFN-γ signaling. […] To further evaluate the effects of IFN-γ on antigen specific T cells, T cells were purified from spleens of tumor-bearing mice and stimulated with different concentrations of recombinant IFN-γ in vitro (FIG. 5A). 72 hours after the stimulation, the level of active Caspase-3 expression was examined among T cells subsets, including naïvee T cells (CD45+CD8+CD44-CD62L+), antigen specific T cells (CD45+CD8+Spas-1), and effector T cells (CD45+CD8+CD44+CD62L-). Activated effector T cells and antigen specific T cells were more susceptible to IFN-γ induced active Caspase-3 expression compared to naïvee T cells (FIG. 5B; 2297.33±305.84 versus 2281.67±305.89 versus 723±17.54; P<0.001).
Splenocytes were harvested from TRAMP-C2 bearing C57BL/6j mice on day 50 and T cells were purified by magnetic beads according to the manufacturer's protocol (Miltenyi Biotec Cat 130-095-130). Cells were checked for over 90% purity. Purified T cells were suspend in DMEM (UCSF cell culture core) +10% fetal bovine serum (Lonza Cat 14-501F) +1% penicillin/streptomycin (UCSF cell culture core)+murine 20 IU IL-2 (Peprotech Cat 212-12), and seeded in 96 wells at 2×10^5 cells per well. Recombinant murine IFN-γ (Peprotech Cat 212-12) was added into the wells at indicated concentrations. Cells were cultured for 12-72 hours and analyzed by flow cytometry. For the patient sample, peripheral blood mononuclear cells (PBMCs) were isolated by Ficoll (Sigma Cat F4375) and PBMCs were seeded in 96 wells at 2×10^5 cells per well supplemented with 20 IU human IL-2 (Peprotech Cat 200-02). Recombinant human IFN-γ (Peprotech Cat 212-12) was added to the wells. Cells were harvested and analyzed by flow cytometry 72 hours after incubation.
The flow cytometry protocols were previously described (Sckisel et al., 2015). […] Flow cytometry was performed on Fortessa X20 Dual, and data analyzed by FlowJo software (TreeStar). […]

Take “IFN-γ: Recombinant human IFN-γ (Peprotech) added to patient PBMCs”: the “apoptosis (Annexin V) in CD8+ T cells” value in test [1] is “gradual increase in apoptosis”.

B1: recombinant IFN-γ: Recombinant murine IFN-γ (Peprotech) (protein, UniProt P01580 23-155, looked up)
Interferon gamma: HGTVIESLESLNNYFNSSGIDVEEKSLFLDIWRNWQKDGDMKILQSQIISFYLRLFEVLKDNQAISNNISVIESHLITTFFSNSKAKKDAFMSIAKFEVNNPQVQRQAFNELIRVVHQLLPESSLRKRKRSRC
As to B1, in test [2], the “active Caspase-3 expression, antigen specific T cells (CD45+CD8+Spas-1)” value was 2281.67±305.89; the “active Caspase-3 expression, effector T cells (CD45+CD8+CD44+CD62L-)” value is listed as 2297.33±305.84; the “active Caspase-3 expression, naïve T cells (CD45+CD8+CD44-CD62L+)” value worked out at 723±17.54.
